Experiment [1] has as its target T1, LptDEM^His (E. coli, UniProt P31554 25-784; P0ADC1 19-193; P0ADN6 20-67, lipoprotein | lipoprotein).
T1 construct: LptD, E. coli; LptE, E. coli; LptM, E. coli; source: E. coli BW25113 wild type, from pLptDEM^His; purified (Ni-NTA, SEC) in DDM; copies: 1 + 1 + 1
The experiment can be described thus: native MS; purified LptDEM^His and LptDE^His complexes; subpopulation with a mass shift of 14,301 Da; re-analysed and new spectra. The following applies: both partners purified.

Experiment [2] has as its target T2, LptDE^His (E. coli, UniProt P31554 25-784; P0ADC1 19-193, lipoprotein).
T2 construct: LptD, E. coli; LptE, E. coli; also called core translocon; the translocon; source: E. coli BW25113 (ΔlptM for native MS), from pLptDE^His or derivatives of pLptDME^His; Ni-NTA (and SEC) in DDM; copies: 1 + 1
The experiment is described as above. The following applies: both partners purified.

Experiment [3] has as its target T3, LptD (E. coli, UniProt P31554 25-784, disulfide bonds Cys31-Cys724 and Cys173-Cys725).
T3 construct: LptD, E. coli outer membrane LPS transporter, β-taco domain plus 26-stranded β-barrel; called full-length LptD in contrast to the β-barrel truncation; Untagged wild-type LptD; also called full-length LptD; endogenous LptD; source: E. coli BW25113, overproduced from pLptDEM^His or pLptDE^His, or endogenous; DDM-solubilised envelope fraction; co-purified (Ni-NTA, SEC)
T3 sequence (looked up): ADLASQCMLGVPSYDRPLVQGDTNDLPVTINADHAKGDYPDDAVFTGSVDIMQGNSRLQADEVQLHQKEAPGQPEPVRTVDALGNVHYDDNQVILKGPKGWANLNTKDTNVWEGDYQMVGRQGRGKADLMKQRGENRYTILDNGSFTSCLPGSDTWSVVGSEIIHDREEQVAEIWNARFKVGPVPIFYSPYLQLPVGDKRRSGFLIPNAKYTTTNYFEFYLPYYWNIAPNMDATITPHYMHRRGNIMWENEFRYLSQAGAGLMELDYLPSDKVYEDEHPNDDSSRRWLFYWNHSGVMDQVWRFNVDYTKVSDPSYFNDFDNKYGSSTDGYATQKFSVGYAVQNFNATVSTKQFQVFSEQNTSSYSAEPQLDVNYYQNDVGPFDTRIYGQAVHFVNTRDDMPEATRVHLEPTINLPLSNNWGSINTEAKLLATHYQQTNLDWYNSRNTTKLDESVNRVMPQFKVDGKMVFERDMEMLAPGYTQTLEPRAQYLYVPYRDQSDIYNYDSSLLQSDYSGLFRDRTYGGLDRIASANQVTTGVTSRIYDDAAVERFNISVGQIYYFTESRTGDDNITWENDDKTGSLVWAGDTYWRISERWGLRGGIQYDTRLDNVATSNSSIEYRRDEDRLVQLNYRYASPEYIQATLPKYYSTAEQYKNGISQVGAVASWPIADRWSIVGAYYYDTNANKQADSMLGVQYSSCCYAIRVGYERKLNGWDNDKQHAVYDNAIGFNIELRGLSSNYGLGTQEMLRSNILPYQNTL
The experiment can be described thus: affinity purification with mass spectrometry; nickel-affinity chromatography and gel filtration of LptM^His (wild-type cells) or LptE^His (ΔlptM cells) from DDM-solubilised envelope; SDS-PAGE with Coomassie; ~15 kDa band identified by bottom-up mass spectrometry. Conditions: partners not purified.

Results on two molecules are retold here after paper PMC12644819 (Nature Communications, 2025).

Ends that are not written are not given here.

T2 sequence (P0ADC1 19-193, one chain of several): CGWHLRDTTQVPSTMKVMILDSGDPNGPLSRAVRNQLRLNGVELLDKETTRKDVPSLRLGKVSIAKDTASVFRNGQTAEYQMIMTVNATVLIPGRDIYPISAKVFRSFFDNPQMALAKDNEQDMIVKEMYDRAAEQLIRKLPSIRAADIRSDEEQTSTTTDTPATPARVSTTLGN
T1 sequence (P0ADC1 19-193, one chain of several): as above

B1: LptY (natural protein, E. coli, UniProt P31063 16-137, looked up)
chain: CAEVENYNNVVKTPAPDWLAGYWQTKGPQRALVSPEAIGSLIVTKEGDTLDCRQWQRVIAVPGKLTLMSDDLTNVTVKRELYEVERDGNTIEYDGMTMERVDRPTAECAAALDKAPLPTPLP
modifications: lipoprotein
notes: LptY (formerly YedD), E. coli OM lipoprotein of ~14 kDa; an AlphaFold2 model was docked; also called YedD; source: endogenous, E. coli BW25113; co-purified with LptDEM^His or LptDE^His (Ni-NTA, SEC)
As for B1, the “stoichiometry N” value was 1 LptD:LptE:LptM:LptY in experiment [1] and 1 LptD:LptE:LptY in experiment [2].

B2: LptM^His (natural protein, E. coli, UniProt P0ADN6 20-67, looked up)
chain: CGLKGPLYFPPADKNAPPPTKPVETQTQSTVPDKNDRATGDGPSQVNY
modifications: also: lipoprotein, acyl tails on N-terminal Cys, His-tagged (LptM^His)
notes: LptM, E. coli lipoprotein; source: E. coli BW25113, from pLptDEM^His or pLptD^β-barrelEM^His; DDM-solubilised envelope fraction; purified (Ni-NTA, SEC)
For the molecule B2, the binding result in experiment [3] was “binds”.
